From patent US20220235103A1 (Molecular Partners, published 2022)
Substitutions are numbered along the chain they refer to.

B1: vS07_23E04 (designed binder)
chain: MRGSHHHHHHGSDLGKKLLQAARAGQLDEVRELLKAGADVNAKDQEGITPLHVAAHQGHLEIVEVLLKAGADVNAKDVWGRTPLHLAAWRGHLEIVEVLLKAGADVNAKDHAGATPLHAAALSGHLEIVEVLLKAGADVNAQDKSGKTPADLAARAGHQDIAEVLQKAA
notes: also called R3c
B2: vS07_29B10 (designed binder)
chain: B1 chain with Q45R, V53L, H56Q, Q57H, R90Q, H111L, A119V, S123Y
notes: also called R3b
B3: vS07_12C06 (designed binder)
chain: B1 chain with Q45R, I48K, H56Q, Q57E, R90I, H111V, A112S, S123H, K134N
notes: also called R1b; Rb1
B4: vS07_19G10 (designed binder)
chain: MRGSHHHHHHGSDLGNKLLDAAWVGQDDEVRILLAAGADVNAKDWQGETPLHLAATKGHLEIVEVLLKAGADVNAKDVVGYTPLHVAASQGHLEIVEVLLKAGADVNAQDVHGYTPADLAAQAGHEDIAEVLQKAA
notes: also called R2a
B5: vS07_14G03 (designed binder)
chain: MRGSHHHHHHGSDLGQKLLHAAQYGQDDEVRILLAAGADVNAKDKQGNTPLHIAAFHGHLEIVEVLLKAGADVNAKDQWGLTPLHLAAAWGHLEIVEVLLKAGADVNAQDNYGQTPADLAAESGHEDIAEVLQKAA
notes: also called S2a
B6: ALE030 (designed binder)
chain: MRGSHHHHHHGSDLGKKLLEAARAGQDDEVRELLKAGADVNAKDYFSHTPLHLAARNGHLKIVEVLLKAGADVNAKDFAGKTPLHLAANEGHLEIVEVLLKAGADVNAQDIFGKTPADIAADAGHEDIAEVLQKAAGSPTPTPTTPTPTPTTPTPTPTGSDLGKKLLEAARAGQDDEVRELLKAGADVNAKDYFSHTPLHLAARNGHLKIVEVLLKAGADVNAKDFAGKTPLHLAANEGHLEIVEVLLKAGADVNAQDIFGKTPADIAADAGHEDIAEVLQKAAGSPTPTPTTPTPTPTTPTPTPTGSDLGKKLLQAARAGQLDEVRELLKAGADVNAKDREGITPLHLAAQHGHLEIVEVLLKAGADVNAKDVWGRTPLHLAAWQGHLEIVEVLLKAGADVNAKDLAGATPLHVAALYGHLEIVEVLLKAGADVNAQDKSGKTPADLAARAGHQDIAEVLQKAAGSPTPTPTTPTPTPTTPTPTPTGSDLGNKLLDAAWVGQDDEVRILLAAGADVNAKDWQGETPLHLAATKGHLEIVEVLLKAGADVNAKDVVGYTPLHVAASQGHLEIVEVLLKAGADVNAQDVHGYTPADLAAQAGHEDIAEVLQKAAGSPTPTPTTPTPTPTTPTPTPTGSDLGKKLLQAARAGQLDEVRELLKAGADVNAKDREGKTPLHVAAQEGHLEIVEVLLKAGADVNAKDVWGRTPLHLAAWIGHLEIVEVLLKAGADVNAKDVSGATPLHAAALHGHLEIVEVLLNAGADVNAQDKSGKTPADLAARAGHQDIAEVLQKAA
B7: ALE033 (designed binder)
chain: MRGSHHHHHHGSDLGKKLLEAARAGQDDEVRELLKAGADVNAKDYFSHTPLHLAARNGHLKIVEVLLKAGADVNAKDFAGKTPLHLAANEGHLEIVEVLLKAGADVNAQDIFGKTPADIAADAGHEDIAEVLQKAAGSPTPTPTTPTPTPTTPTPTPTGSDLGKKLLEAARAGQDDEVRELLKAGADVNAKDYFSHTPLHLAARNGHLKIVEVLLKAGADVNAKDFAGKTPLHLAANEGHLEIVEVLLKAGADVNAQDIFGKTPADIAADAGHEDIAEVLQKAAGSPTPTPTTPTPTPTTPTPTPTGSDLGKKLLQAARAGQLDEVRELLKAGADVNAKDREGITPLHLAAQHGHLEIVEVLLKAGADVNAKDVWGRTPLHLAAWQGHLEIVEVLLKAGADVNAKDLAGATPLHVAALYGHLEIVEVLLKAGADVNAQDKSGKTPADLAARAGHQDIAEVLQKAAGSPTPTPTTPTPTPTTPTPTPTGSDLGKKLLQAARAGQLDEVRELLKAGADVNAKDREGKTPLHVAAQEGHLEIVEVLLKAGADVNAKDVWGRTPLHLAAWIGHLEIVEVLLKAGADVNAKDVSGATPLHAAALHGHLEIVEVLLNAGADVNAQDKSGKTPADLAARAGHQDIAEVLQKAAGSPTPTPTTPTPTPTTPTPTPTGSDLGKKLLQAARAGQLDEVRELLKAGADVNAKDREGITPLHLAAQHGHLEIVEVLLKAGADVNAKDVWGRTPLHLAAWQGHLEIVEVLLKAGADVNAKDLAGATPLHVAALYGHLEIVEVLLKAGADVNAQDKSGKTPADLAARAGHQDIAEVLQKAA
B8: ALE038 (designed binder)
chain: MRGSHHHHHHGSDLGKKLLEAARAGQDDEVRELLKAGADVNAKDYFSHTPLHLAARNGHLKIVEVLLKAGADVNAKDFAGKTPLHLAANEGHLEIVEVLLKAGADVNAQDIFGKTPADIAADAGHEDIAEVLQKAAGSPTPTPTTPTPTPTTPTPTPTGSDLGKKLLEAARAGQDDEVRELLKAGADVNAKDYFSHTPLHLAARNGHLKIVEVLLKAGADVNAKDFAGKTPLHLAANEGHLEIVEVLLKAGADVNAQDIFGKTPADIAADAGHEDIAEVLQKAAGSPTPTPTTPTPTPTTPTPTPTGSDLGKKLLQAARAGQLDEVRELLKAGADVNAKDREGKTPLHVAAQEGHLEIVEVLLKAGADVNAKDVWGRTPLHLAAWIGHLEIVEVLLKAGADVNAKDVSGATPLHAAALHGHLEIVEVLLNAGADVNAQDKSGKTPADLAARAGHQDIAEVLQKAAGSPTPTPTTPTPTPTTPTPTPTGSDLGKKLLQAARAGQLDEVRELLKAGADVNAKDREGITPLHLAAQHGHLEIVEVLLKAGADVNAKDVWGRTPLHLAAWQGHLEIVEVLLKAGADVNAKDLAGATPLHVAALYGHLEIVEVLLKAGADVNAQDKSGKTPADLAARAGHQDIAEVLQKAAGSPTPTPTTPTPTPTTPTPTPTGSDLGHKLLLAAQAGQDDEVRILLAAGADVNAKDVFGQTPLHVAAVAGHLEIVEVLLKAGADVNAKDSIGYTPLHHAARVGHLEIVEVLLKAGADVNAQDWIGITPADLAAFEGHEDIAEVLQKAA

target: spike protein of live SARS-CoV-2 (2019-nCoV/IDF0372/2020) (SARS-CoV-2, UniProt P0DTC2 14-1273); test: cell-based or functional assay

| Binder | protection of Vero E6 cells from SARS-CoV-2 cytopathic effect |
| --- | --- |
| B1 | 20 nM |
| B2 | 20 nM |
| B3 | 2 nM |
| B4 | 100 nM |

target: T1, SARS-CoV-2 spike protein, wild type (Wuhan) (SARS-CoV-2, UniProt P0DTC2 14-1273); test: cell-based or functional assay

| Binder | VSV-SARS-CoV-2 IC50 |
| --- | --- |
| B1 | < 2 nM |
| B2 | < 2 nM |
| B3 | < 2 nM |
| B5 | < 100 nM |

target: T1, SARS-CoV-2 spike protein, wild type …; test: cell-based or functional assay; remark: another data set of the same source

| Binder | IC50, SARS-CoV-2 VSV pseudovirus neutralization (luciferase) |
| --- | --- |
| B6 | 0.119 nM |
| B7 | 0.125 nM |
| B8 | 0.264 nM |

target: SARS-CoV-2 spike protein K417E (SARS-CoV-2, UniProt P0DTC2 14-1273); test: cell-based or functional assay

| Binder | VSV Pseudotype Neutralization Assay IC50 |
| --- | --- |
| B1 | 3.6 ng/mL |
| B2 | 1.8 ng/mL |
| B3 | 1 ng/mL |

target: SARS-CoV-2 spike protein N439K (SARS-CoV-2, UniProt P0DTC2 14-1273); test: cell-based or functional assay

| Binder | VSV Pseudotype Neutralization Assay IC50 |
| --- | --- |
| B1 | 12.9 ng/mL |
| B2 | 7.3 ng/mL |
| B3 | 5.3 ng/mL |

target: SARS-CoV-2 spike protein D614G (SARS-CoV-2, UniProt P0DTC2 14-1273); test: cell-based or functional assay

| Binder | VSV Pseudotype Neutralization Assay IC50 |
| --- | --- |
| B1 | 23 ng/mL |
| B2 | 11.9 ng/mL |
| B3 | 6.2 ng/mL |

target: SARS-CoV-2 spike protein N501Y (SARS-CoV-2, UniProt P0DTC2 14-1273); test: cell-based or functional assay

| Binder | VSV Pseudotype Neutralization Assay IC50 |
| --- | --- |
| B1 | 27.8 ng/mL |
| B2 | 9.1 ng/mL |
| B3 | 4.8 ng/mL |

target: SARS-CoV-2 spike protein T478I (SARS-CoV-2, UniProt P0DTC2 14-1273); test: cell-based or functional assay

| Binder | VSV Pseudotype Neutralization Assay IC50 |
| --- | --- |
| B1 | 16.7 ng/mL |
| B2 | 11.2 ng/mL |
| B3 | 3.1 ng/mL |

target: SARS-CoV-2 spike protein S477N (SARS-CoV-2, UniProt P0DTC2 14-1273); test: cell-based or functional assay

| Binder | VSV Pseudotype Neutralization Assay IC50 |
| --- | --- |
| B1 | 9 ng/mL |
| B2 | 3 ng/mL |
| B3 | 2 ng/mL |

target: SARS-CoV-2 spike protein variant B.1.351 (SARS-CoV-2, UniProt P0DTC2 14-1273); test: cell-based or functional assay

| Binder | VSV Pseudotype Neutralization Assay IC50 |
| --- | --- |
| B1 | > 100 ng/mL |
| B2 | 76 ng/mL |
| B3 | 26 ng/mL |

target: SARS-CoV-2 spike protein Q493K (SARS-CoV-2, UniProt P0DTC2 14-1273); test: cell-based or functional assay

| Binder | VSV Pseudotype Neutralization Assay IC50 |
| --- | --- |
| B1 | 45.8 ng/mL |
| B2 | 30 ng/mL |
| B3 | 28.2 ng/mL |

target: SARS-CoV-2 spike protein V483A (SARS-CoV-2, UniProt P0DTC2 14-1273); test: cell-based or functional assay

| Binder | VSV Pseudotype Neutralization Assay IC50 |
| --- | --- |
| B1 | 21.3 ng/mL |
| B2 | 21.8 ng/mL |
| B3 | 8.4 ng/mL |

target: SARS-CoV-2 spike protein F490S (SARS-CoV-2, UniProt P0DTC2 14-1273); test: cell-based or functional assay

| Binder | VSV Pseudotype Neutralization Assay IC50 |
| --- | --- |
| B1 | 8.1 ng/mL |
| B2 | 2.3 ng/mL |
| B3 | 1.7 ng/mL |

target: SARS-CoV-2 spike protein E484K (SARS-CoV-2, UniProt P0DTC2 14-1273); test: cell-based or functional assay

| Binder | VSV Pseudotype Neutralization Assay IC50 |
| --- | --- |
| B1 | > 100 ng/mL |
| B2 | 64.2 ng/mL |
| B3 | 10.2 ng/mL |

target: SARS-CoV-2 spike protein Y453F (SARS-CoV-2, UniProt P0DTC2 14-1273); test: cell-based or functional assay

| Binder | VSV Pseudotype Neutralization Assay IC50 |
| --- | --- |
| B1 | 3.3 ng/mL |
| B2 | 10.9 ng/mL |
| B3 | 5.9 ng/mL |

target: SARS-CoV-2 spike protein F486V (SARS-CoV-2, UniProt P0DTC2 14-1273); test: cell-based or functional assay

| Binder | VSV Pseudotype Neutralization Assay IC50 |
| --- | --- |
| B1 | > 100 ng/mL |
| B2 | > 100 ng/mL |
| B3 | > 100 ng/mL |

target: T1, SARS-CoV-2 spike protein, wild type …; test: cell-based or functional assay; remark: another data set of the same source

| Binder | VSV Pseudotype Neutralization Assay IC50 |
| --- | --- |
| B1 | 13.3 ng/mL |
| B2 | 7.2 ng/mL |
| B3 | 2.1 ng/mL |

target: SARS-CoV-2 spike protein P479S (SARS-CoV-2, UniProt P0DTC2 14-1273); test: cell-based or functional assay

| Binder | VSV Pseudotype Neutralization Assay IC50 |
| --- | --- |
| B1 | 27.6 ng/mL |
| B2 | 7.2 ng/mL |
| B3 | 2.3 ng/mL |
